{"source": "patent US20260184809A1", "about": "(Genmab, published 2026)", "binders": {"B1": {"name": "IgG1-EpCAM-A37-FEAR (antibody)", "heavy": "not shown", "light": "EIELTQSPGTLSLSPGERATLSCRASQTISNNYLAWYQQKRGQAPRLLIYAASSRATGIPDRFSGTGSGTDFTLTISRLEPEDFAVYYCAQGELYPRQFGGGTKLEIKRTVAAPSVFIFPPSDEQLKSGTASVVCLLNNFYPREAKVQWKVDNALQSGNSQESVTEQDSKDSTYSLSSTLTLSKADYEKHKVYACEVTHQGLSSPVTKSFNRGEC"}, "B2": {"name": "IgG1-EpCAM-C52-FEAR (antibody, V domains shown)", "VH": "QVQLVQSGAEVKKPGASVKVSCKASGGTFSSYAISWVRQAPGQGLEWMGGIVPIFGTANYAQKFQGRVTITADESTSTAYMELSSLRSEDTAVYYCARDPFLHYWGQGTLVTVSS", "VL": "EIELTQSPGTLSLSPGERATLSCRASQSVSSSYLAWYQQKPGQAPRLLIYGASSRATGIPDRFSGSGSGTDFTLTISRLEPEDFAVYYCAQGELYPRQFGGGTKLDIKR"}, "B3": {"name": "IgG1-EpCAM-323-A3-FEAR (antibody)", "heavy": "QIQLVQSGPELKKPGETVKISCKASGYTFTNYGMNWVRQASGEGLKWMGWINTYTGEPTYGEDFKGRFAFSLETSASTAYLQINNLKNEDTATYFCARFGNYVDYWGQGTTLTVSSASTKGPSVFPLAPSSKSTSGGTAALGCLVKDYFPEPVTVSWNSGALTSGVHTFPAVLQSSGLYSLSSVVTVPSSSLGTQTYICNVNHKPSNTKVDKRVEPKSCDKTHTCPPCPAPEFEGGPSVFLFPPKPKDTLMISRTPEVTCVVVAVSHEDPEVKFNWYVDGVEVHNAKTKPREEQYNSTYRVVSVLTVLHQDWLNGKEYKCKVSNKALPAPIEKTISKAKGQPREPQVYTLPPSREEMTKNQVSLTCLVKGFYPSDIAVEWESNGQPENNYKTTPPVLDSDGSFFLYSRLTVDKSRWQQGNVFSCSVMHEALHNHYTQKSLSLSPG", "light": "DIVMTQAAFSNPVTLGTSASISCRSSKNLLHSNGITYLYWYLQKPGQSPHLLIYQMSNLASGVPDRFSSSGSGTDFTLRISRVEAEDVGVYYCAQNLEIPRTFGGGTKLEIKRTVAAPSVFIFPPSDEQLKSGTASVVCLLNNFYPREAKVQWKVDNALQSGNSQESVTEQDSKDSTYSLSSTLTLSKADYEKHKVYACEVTHQGLSSPVTKSFNRGEC", "notes": "also called IgG1-323-A3-FEAR"}, "B4": {"name": "bsIgG1-b12-FEAL/EpCAM-323-A3-FEAR (bispecific antibody)", "heavy 1": "QVQLVQSGAEVKKPGASVKVSCQASGYRFSNFVIHWVRQAPGQRFEWMGWINPYNGNKEFSAKFQDRVTFTADTSANTAYMELRSLRSADTAVYYCARVGPYSWDDSPQDNYYMDVWGKGTTVIVSSASTKGPSVFPLAPSSKSTSGGTAALGCLVKDYFPEPVTVSWNSGALTSGVHTFPAVLQSSGLYSLSSVVTVPSSSLGTQTYICNVNHKPSNTKVDKRVEPKSCDKTHTCPPCPAPEFEGGPSVFLFPPKPKDTLMISRTPEVTCVVVAVSHEDPEVKFNWYVDGVEVHNAKTKPREEQYNSTYRVVSVLTVLHQDWLNGKEYKCKVSNKALPAPIEKTISKAKGQPREPQVYTLPPSREEMTKNQVSLTCLVKGFYPSDIAVEWESNGQPENNYKTTPPVLDSDGSFLLYSKLTVDKSRWQQGNVFSCSVMHEALHNHYTQKSLSLSPG", "light 1": "EIVLTQSPGTLSLSPGERATFSCRSSHSIRSRRVAWYQHKPGQAPRLVIHGVSNRASGISDRFSGSGSGTDFTLTITRVEPEDFALYYCQVYGASSYTFGQGTKLERKRTVAAPSVFIFPPSDEQLKSGTASVVCLLNNFYPREAKVQWKVDNALQSGNSQESVTEQDSKDSTYSLSSTLTLSKADYEKHKVYACEVTHQGLSSPVTKSFNRGEC", "heavy 2": "B3 heavy", "light 2": "B3 light"}, "B5": {"name": "IgG1-EpCAM-UBS-54-FEAR (antibody, V domains shown)", "VH": "B2 VH with A16S, K19R, V52I", "VL": "not shown"}}, "key": {"[1]": {"target": "T1, human EpCAM, full length, on cells (human, UniProt P16422 24-314)", "T1 construct": "also called hEpCAM; EpCAM on DiFi, HPAF-II, A549, OV-90-SC12 and MDA-MB-231_hCLDN6_hEpCAM cells", "T1 sequence": "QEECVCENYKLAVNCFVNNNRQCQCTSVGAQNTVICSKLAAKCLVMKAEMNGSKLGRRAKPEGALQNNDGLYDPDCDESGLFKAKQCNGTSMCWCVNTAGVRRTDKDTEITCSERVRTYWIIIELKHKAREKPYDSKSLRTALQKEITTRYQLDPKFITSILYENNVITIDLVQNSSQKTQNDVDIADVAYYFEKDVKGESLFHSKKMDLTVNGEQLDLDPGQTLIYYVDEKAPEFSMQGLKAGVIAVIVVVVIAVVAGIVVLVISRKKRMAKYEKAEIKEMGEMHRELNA", "experiment": "flow cytometry on A549 cells, PE anti-human IgG F(ab')2", "description": "(§1) Binding to the EpCAM-expressing human tumor cell lines DiFi, HPAF-II and A549 by bivalent EpCAM antibodies or bispecific antibodies carrying one EpCAM-binding arm was analyzed by flow cytometry. […] Next, cells were washed once (A-D) or twice (E) in FACS buffer, re-suspended in 100 μL FACS buffer and analyzed on a BD LSRFortessa FACS (BD Biosciences, USA), Celesta (BD Biosciences, USA) or iQue (Sartorius, Germany). Binding curves were analyzed using non-linear regression (sigmoidal dose-response with variable slope) using GraphPad Prism V7.02 software (GraphPad Software, San Diego, CA, USA)."}, "[2]": {"target": "T1, human EpCAM, full length, on cells", "experiment": "flow cytometry on DiFi cells, PE anti-human IgG F(ab')2", "description": "as §1"}, "[3]": {"target": "T1, human EpCAM, full length, on cells", "experiment": "flow cytometry on HPAF-II cells, PE anti-human IgG F(ab')2", "description": "as §1"}, "[4]": {"target": "T1, human EpCAM, full length, on cells", "experiment": "flow cytometry on CHO-S cells transiently transfected with full length human EpCAM, PE anti-human IgG F(ab')2", "description": "(§2) Binding of EpCAM antibodies to CHO-S cells transiently transfected with full length human, cynomolgus monkey or mouse EpCAM was analyzed by flow cytometry. […] Cells were washed twice in FACS buffer, re-suspended in 20 μL FACS buffer supplemented with TO-PRO™-3 Iodide (diluted 1:20000; Invitrogen, cat. no. T3605) and analyzed on an iQue screener (Intellicyt Corporation, USA). Binding curves were analyzed by non-linear regression (sigmoidal dose-response with variable slope) using GraphPad Prism V8.4.1 software (GraphPad Software, San Diego, CA, USA)."}, "[5]": {"target": "T2, mouse EpCAM, full length, on transfected CHO-S cells (mouse, UniProt Q99JW5 24-315)", "T2 sequence": "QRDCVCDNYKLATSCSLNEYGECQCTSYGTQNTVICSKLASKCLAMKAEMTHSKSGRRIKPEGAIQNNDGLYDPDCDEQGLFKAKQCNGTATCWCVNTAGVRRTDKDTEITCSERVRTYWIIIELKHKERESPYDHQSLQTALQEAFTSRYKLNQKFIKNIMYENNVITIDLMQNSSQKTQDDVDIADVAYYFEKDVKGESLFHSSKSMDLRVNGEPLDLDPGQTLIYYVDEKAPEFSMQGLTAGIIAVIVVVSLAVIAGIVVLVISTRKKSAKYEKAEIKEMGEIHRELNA", "experiment": "flow cytometry on CHO-S cells transiently transfected with full length mouse EpCAM, PE anti-human IgG F(ab')2", "description": "as §2"}, "[6]": {"target": "T1, human EpCAM, full length, on cells", "experiment": "flow cytometry on DiFi cells, PE anti-human IgG F(ab')2", "remark": "listed apart in the source", "description": "as §1"}, "[7]": {"target": "T1, human EpCAM, full length, on cells", "experiment": "flow cytometry on HPAF-II cells, PE anti-human IgG F(ab')2", "remark": "listed apart in the source", "description": "as §1"}, "[8]": {"target": "T1, human EpCAM, full length, on cells", "experiment": "flow cytometry on DiFi cells, PE anti-human IgG F(ab')2", "remark": "listed apart in the source", "description": "as §1"}, "[9]": {"target": "T1, human EpCAM, full length, on cells", "experiment": "flow cytometry on HPAF-II cells, PE anti-human IgG F(ab')2", "remark": "listed apart in the source", "description": "as §1"}, "[10]": {"target": "T1, human EpCAM, full length, on cells", "experiment": "flow cytometry on CHO-S cells transiently transfected with full length human EpCAM, PE anti-human IgG F(ab')2", "remark": "listed apart in the source", "description": "as §2"}, "[11]": {"target": "T2, mouse EpCAM, full length, on …", "experiment": "flow cytometry on CHO-S cells transiently transfected with full length mouse EpCAM, PE anti-human IgG F(ab')2", "remark": "listed apart in the source", "description": "as §2"}, "[12]": {"target": "T1, human EpCAM, full length, on cells", "experiment": "flow cytometry on DiFi cells, PE anti-human IgG F(ab')2", "remark": "listed apart in the source", "description": "as §1"}, "[13]": {"target": "T1, human EpCAM, full length, on cells", "experiment": "flow cytometry on HPAF-II cells, PE anti-human IgG F(ab')2", "remark": "listed apart in the source", "description": "as §1"}}, "note": "Residue numbers refer to the chain shown, from its start. Where two headings read alike, the source gives them in different places."}
{"binder": "B1", "values": [{"measurement": "EC50 (read off the curve)", "setting": "[1]", "result": "~0.2", "unit": "µg/mL"}, {"measurement": "EC50 (read off the curve)", "setting": "[2]", "result": "~0.5", "unit": "µg/mL"}, {"measurement": "EC50 (read off the curve)", "setting": "[3]", "result": "~0.1", "unit": "µg/mL"}, {"measurement": "EC50 (read off the curve)", "setting": "[4]", "result": "~0.03", "unit": "µg/mL"}, {"measurement": "EC50 (read off the curve)", "setting": "[5]", "result": "~0.01", "unit": "µg/mL"}]}
{"binder": "B2", "values": [{"measurement": "EC50 (read off the curve)", "setting": "[6]", "result": "~0.3", "unit": "µg/mL"}, {"measurement": "EC50 (read off the curve)", "setting": "[7]", "result": "~0.07", "unit": "µg/mL"}]}
{"binder": "B3", "values": [{"measurement": "EC50 (read off the curve)", "setting": "[8]", "result": "~0.08", "unit": "µg/mL"}, {"measurement": "EC50 (read off the curve)", "setting": "[9]", "result": "~0.02", "unit": "µg/mL"}]}
{"binder": "B4", "values": [{"measurement": "EC50 (read off the curve)", "setting": "[10]", "result": "~0.1", "unit": "µg/mL"}, {"measurement": "EC50 (read off the curve)", "setting": "[11]", "result": "~0.05", "unit": "µg/mL"}]}
{"binder": "B5", "values": [{"measurement": "EC50 (read off the curve)", "setting": "[12]", "result": "~0.4", "unit": "µg/mL"}, {"measurement": "EC50 (read off the curve)", "setting": "[13]", "result": "~0.2", "unit": "µg/mL"}, {"measurement": "EC50 (read off the curve)", "setting": "[4]", "result": "~0.04", "unit": "µg/mL"}]}
